Test results: the supplement of paper PMC9732359
± gives the uncertainty stated by the source.

Assay: protein stability index of a GFP-peptide fusion (yeast GPS) (PSI 1-4); higher = more stable; sorted into four equal gates, so the index is relative within each strain
In short: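 Yeast carrying a pooled library were grown to mid-log phase in leucine-free medium. Each library plasmid expresses Cherry and has a tiled 17-residue yeast protein peptide fused downstream of GFP. Cells were sorted into four equal gates by GFP/Cherry ratio, and plasmids from each gate were PCR-amplified, Illumina-sequenced and assigned to strains by barcode. Summing, across gates, the read frequency times the gate number gave each peptide's protein stability index.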

| Sequence | protein stability index (doa10∆) | protein stability index (pdr5∆) | protein stability index (san1∆) | protein stability index (ubr1∆) |
| --- | --- | --- | --- | --- |
| NGKDSEIMYTGVSISVS [SMC3] | 3.29 ± 0.22 | 2.87 ± 0.21 | 2.83 ± 0.1 | 2.29 ± 0.17 |
| NGNWEVGVHIADVTHFV [DIS3] | 2.55 ± 0.052 | 2.09 ± 0.061 | 2.9 ± 0.047 | 2.62 ± 0.048 |
| NGQEQQGPVKNTQLHGP [RGR1] | 3.02 ± 0.077 | 3.12 ± 0.057 | 3.05 ± 0.052 | 3.1 ± 0.044 |
| NGSEKVLIAQERSAGNI [RPB2] | 3.1 ± 0.17 | 3.44 ± 0.21 | 3.12 ± 0.12 | 3.06 ± 0.061 |
| NGTMINEVIDKLKNENT [PCI8] | 2.84 ± 0.056 | 2.91 ± 0.052 | 2.84 ± 0.047 | 3.09 ± 0.037 |
| NGVIIAADNLGSYGSLL [PRE4] | 3.05 ± 0.13 | 3.15 ± 0.13 | 2.92 ± 0.21 | 3.12 ± 0.2 |
| NGVVIATEKKSSSPLAM [PRE8] | 2.91 ± 0.19 | 3 ± 0.17 | 2.55 ± 0.26 | 3.07 ± 0.11 |
| NHASMDVYNRELDEHTT [BRR2] | 3.27 ± 0.068 | 3.16 ± 0.063 | 3.26 ± 0.047 | 3.26 ± 0.056 |
| NHGGSLGKYDLTVIEKL [SRP68] |  |  | 3.53 ± 0.14 | 3.41 ± 0.29 |
| NHNGSALLIEVFTALLR [ITC1] | 1.68 ± 0.074 | 1.38 ± 0.055 | 1.47 ± 0.094 | 1.35 ± 0.053 |
| NIALVSKLRNNIRSQLL [SRP54] | 2.13 ± 0.069 | 2.56 ± 0.058 | 2.5 ± 0.053 | 2.61 ± 0.065 |
| NIELHSLYTSREPRVVS [PUP1] | 2.56 ± 0.1 | 3.1 ± 0.068 | 3.22 ± 0.09 | 3.07 ± 0.078 |
| NIKSNDFSIRKTCAKSV [ECM29] | 2.55 ± 0.087 | 2.24 ± 0.1 | 2.27 ± 0.18 | 2.83 ± 0.15 |
| NILALNLVSLLIIVTRK [YML031W/NDC1] | 1.92 ± 0.072 | 1.35 ± 0.044 | 1.2 ± 0.11 | 1.32 ± 0.039 |
| NILTTHLSHPGTNKDMI [ECM29] | 2.61 ± 0.073 | 2.2 ± 0.067 | 2.15 ± 0.09 | 2.05 ± 0.044 |
| NINFASGVKNDILQSLS [CDC53] | 2.11 ± 0.066 | 2.39 ± 0.045 | 1.65 ± 0.053 | 1.66 ± 0.045 |
| NIPRRELKINLPLTEHK [SRB4] | 2.93 ± 0.094 | 2.66 ± 0.072 | 3.23 ± 0.058 | 3.03 ± 0.12 |
| NIVKQNEGIDLDTYRER [SMC2] | 3.13 ± 0.13 | 3.51 ± 0.12 | 3.24 ± 0.079 | 3.41 ± 0.086 |
| NKANIQALIHGLNRHYY [RPN11] | 2.12 ± 0.082 | 2.52 ± 0.073 | 2.21 ± 0.095 | 2.37 ± 0.073 |
| NKDASLALQRGATVFVN [DPB4] | 2.61 ± 0.099 | 2.29 ± 0.072 | 2.88 ± 0.067 | 2.32 ± 0.083 |

| Sequence | protein stability index (doa10∆) | protein stability index (pdr5∆) | protein stability index (san1∆) | protein stability index (ubr1∆) |
| --- | --- | --- | --- | --- |
| NKDLSELVIRLEKDAAD [YIL149C/MLP2] | 3.05 ± 0.078 | 3.15 ± 0.084 | 3.2 ± 0.061 | 3.15 ± 0.069 |
| NKELPINHTILGKLQDV [RPN8] | 2.62 ± 0.051 | 2.69 ± 0.068 | 2.5 ± 0.064 | 2.67 ± 0.049 |
| NKENDNVPSTKFNAAPE [SNF12] | 3.38 ± 0.055 | 3.36 ± 0.068 | 3.17 ± 0.06 | 3.14 ± 0.056 |
| NKEYTLVHGIFGAKMSR [SIN4] | 2.75 ± 0.12 | 2.98 ± 0.13 | 3.15 ± 0.19 | 3.09 ± 0.11 |
| NKKIGKRPPEIMSTEAH [SIR4] | 3.09 ± 0.12 | 3.27 ± 0.17 | 3.04 ± 0.09 | 3.22 ± 0.088 |
| NKKSEQALDISKKGKPT [SRP72] | 3.1 ± 0.1 | 3.02 ± 0.071 | 2.81 ± 0.061 | 3.04 ± 0.073 |
| NKLDEYHGLYTNYEMSY [LIN1] | 1.56 ± 0.065 | 1.78 ± 0.059 | 1.78 ± 0.093 | 1.6 ± 0.068 |
| NKLMEKDFQVNKEIKPY [SIR4] | 3.35 ± 0.059 | 3.38 ± 0.054 | 3.12 ± 0.059 | 3.28 ± 0.047 |
| NKLRQQAIAKNNPQVVN [SNF5] | 1.54 ± 0.035 | 1.94 ± 0.042 | 1.81 ± 0.049 | 1.65 ± 0.03 |
| NKNGENKKIGKRPPEIM [SIR4] | 3.09 ± 0.12 | 3.21 ± 0.11 | 3.28 ± 0.14 | 3.28 ± 0.091 |
| NKNLPFVWLSSEENIGS [SWI1] | 2.9 ± 0.067 | 1.84 ± 0.072 | 1.59 ± 0.063 | 1.74 ± 0.053 |
| NKRLSRGKKGLKKKVVD [RPS1B] |  | 3.44 ± 0.15 | 2.75 ± 0.24 | 3.38 ± 0.14 |
| NKTLTLDLKECYQFAEY [ARP7] | 1.96 ± 0.089 | 2.3 ± 0.072 | 1.9 ± 0.17 | 2.69 ± 0.1 |
| NKTVNEAAKPSLSFGSG [YJL041W/NSP1] | 3.5 ± 0.13 | 3.01 ± 0.083 | 2.08 ± 0.21 | 3.21 ± 0.078 |
| NLATKGMVKLNEYPVAD [REC8] | 2.85 ± 0.071 | 1.52 ± 0.05 | 1.46 ± 0.074 | 1.57 ± 0.058 |
| NLEFNYTKPYPNFEASF [SMC2] | 2.76 ± 0.09 | 2.21 ± 0.1 | 2.43 ± 0.15 | 2.74 ± 0.13 |
| NLEKNYLAKLSKQLSLE [IRR1] | 3.19 ± 0.14 | 3.34 ± 0.12 | 2.55 ± 0.13 | 3.14 ± 0.084 |
| NLEQINEDLEDGHYIEE [REC8] | 2.93 ± 0.088 |  | 2.98 ± 0.16 | 3.2 ± 0.088 |
| NLIGVITHQGANSESGH [UBP6] | 2.33 ± 0.12 | 3 ± 0.091 | 3.22 ± 0.069 | 3.07 ± 0.085 |
